Publication PMC4615246 (Nucleus, 2015)

What was measured:
LacI-CFP-Nup153 = biological target: T1, LacI-CFP-Nup153 (human, UniProt P49790 1-1475); assay: LacI/LacO array recruitment in cells
T1 sequence: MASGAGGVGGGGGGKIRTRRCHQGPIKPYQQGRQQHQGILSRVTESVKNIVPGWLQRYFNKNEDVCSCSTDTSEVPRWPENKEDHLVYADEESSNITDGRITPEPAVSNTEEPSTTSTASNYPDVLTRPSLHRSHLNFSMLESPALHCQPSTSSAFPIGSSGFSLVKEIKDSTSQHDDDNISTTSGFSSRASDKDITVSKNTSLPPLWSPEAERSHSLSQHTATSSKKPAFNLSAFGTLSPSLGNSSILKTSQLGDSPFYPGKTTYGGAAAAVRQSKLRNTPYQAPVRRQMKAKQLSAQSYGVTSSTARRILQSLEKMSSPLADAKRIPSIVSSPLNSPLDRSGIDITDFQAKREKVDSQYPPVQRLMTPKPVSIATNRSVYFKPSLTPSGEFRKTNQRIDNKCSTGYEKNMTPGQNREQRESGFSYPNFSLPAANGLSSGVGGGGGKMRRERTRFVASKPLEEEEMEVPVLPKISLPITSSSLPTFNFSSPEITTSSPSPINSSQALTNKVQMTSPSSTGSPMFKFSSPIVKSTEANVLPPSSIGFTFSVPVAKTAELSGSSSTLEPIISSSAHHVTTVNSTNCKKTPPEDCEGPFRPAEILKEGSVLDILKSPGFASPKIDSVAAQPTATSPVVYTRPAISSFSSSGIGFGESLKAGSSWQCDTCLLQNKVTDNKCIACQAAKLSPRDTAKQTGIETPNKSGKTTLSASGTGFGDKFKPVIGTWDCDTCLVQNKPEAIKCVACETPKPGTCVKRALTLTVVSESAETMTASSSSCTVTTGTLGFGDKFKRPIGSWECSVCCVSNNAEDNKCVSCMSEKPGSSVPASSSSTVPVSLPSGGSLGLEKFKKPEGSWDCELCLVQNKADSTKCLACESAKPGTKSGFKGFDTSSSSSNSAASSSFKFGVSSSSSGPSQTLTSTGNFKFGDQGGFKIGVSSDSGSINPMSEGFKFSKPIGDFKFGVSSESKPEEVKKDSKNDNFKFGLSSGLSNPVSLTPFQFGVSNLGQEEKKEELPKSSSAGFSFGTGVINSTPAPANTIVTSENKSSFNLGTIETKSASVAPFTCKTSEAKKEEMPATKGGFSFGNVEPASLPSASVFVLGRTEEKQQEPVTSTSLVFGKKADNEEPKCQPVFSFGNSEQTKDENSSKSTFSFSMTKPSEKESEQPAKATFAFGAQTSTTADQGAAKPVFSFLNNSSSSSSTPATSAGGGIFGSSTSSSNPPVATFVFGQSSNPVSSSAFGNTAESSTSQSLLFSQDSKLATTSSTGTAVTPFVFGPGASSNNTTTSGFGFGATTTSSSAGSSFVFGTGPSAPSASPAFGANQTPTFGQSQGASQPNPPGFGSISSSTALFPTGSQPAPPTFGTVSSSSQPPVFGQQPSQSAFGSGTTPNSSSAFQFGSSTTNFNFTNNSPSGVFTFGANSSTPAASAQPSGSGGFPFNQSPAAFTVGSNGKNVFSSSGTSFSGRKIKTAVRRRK

LacI-CFP-Nup133 = biological target: T2, LacI-CFP-Nup133 (human, UniProt Q8WUM0 1-1156); assay: LacI/LacO array recruitment in cells
T2 sequence: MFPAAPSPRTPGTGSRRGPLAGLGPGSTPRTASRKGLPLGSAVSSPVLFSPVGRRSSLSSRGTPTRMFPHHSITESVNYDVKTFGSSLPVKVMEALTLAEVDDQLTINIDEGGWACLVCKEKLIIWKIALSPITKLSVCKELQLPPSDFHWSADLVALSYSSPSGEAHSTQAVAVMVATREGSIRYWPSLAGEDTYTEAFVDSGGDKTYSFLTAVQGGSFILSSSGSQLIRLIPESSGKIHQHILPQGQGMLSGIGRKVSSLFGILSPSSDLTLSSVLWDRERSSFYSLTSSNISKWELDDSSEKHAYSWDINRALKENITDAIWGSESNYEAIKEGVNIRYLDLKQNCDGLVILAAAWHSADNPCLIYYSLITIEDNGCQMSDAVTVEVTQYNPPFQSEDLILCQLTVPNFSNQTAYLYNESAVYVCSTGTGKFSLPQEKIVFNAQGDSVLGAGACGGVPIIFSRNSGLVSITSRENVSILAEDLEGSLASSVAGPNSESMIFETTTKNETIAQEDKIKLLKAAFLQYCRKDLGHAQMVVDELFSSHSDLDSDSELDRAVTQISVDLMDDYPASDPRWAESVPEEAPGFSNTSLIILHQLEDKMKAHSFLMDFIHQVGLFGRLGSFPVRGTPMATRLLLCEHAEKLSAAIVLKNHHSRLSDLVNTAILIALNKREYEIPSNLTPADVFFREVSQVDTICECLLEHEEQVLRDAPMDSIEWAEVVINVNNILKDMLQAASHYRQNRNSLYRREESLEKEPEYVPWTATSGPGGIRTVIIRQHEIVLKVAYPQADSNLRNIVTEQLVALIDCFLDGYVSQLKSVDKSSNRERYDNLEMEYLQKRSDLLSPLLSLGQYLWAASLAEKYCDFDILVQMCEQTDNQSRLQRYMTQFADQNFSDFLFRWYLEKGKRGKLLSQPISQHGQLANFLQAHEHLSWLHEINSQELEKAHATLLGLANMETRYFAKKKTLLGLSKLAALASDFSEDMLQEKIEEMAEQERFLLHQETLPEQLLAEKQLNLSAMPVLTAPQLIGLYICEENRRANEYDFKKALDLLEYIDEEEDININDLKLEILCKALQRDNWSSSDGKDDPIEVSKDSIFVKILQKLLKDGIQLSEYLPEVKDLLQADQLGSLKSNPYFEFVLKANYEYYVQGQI

percent of transfected cells showing colocalization (LacI-CFP-Nup153): 14%
percent of transfected cells showing colocalization (LacI-CFP-Nup133): 20%
B1: Nup53 (endogenous) (natural protein)
chain: MAAFAVEPQGPALGSEPMMLGSPTSPKPGVNAQFLPGFLMGDLPAPVTPQPRSISGPSVGVMEMRSPLLAGGSPPQPVVPAHKDKSGAPPVRSIYDDISSPGLGSTPLTSRRQPNISVMQSPLVGVTSTPGTGQSMFSPASIGQPRKTTLSPAQLDPFYTQGDSLTSEDHLDDSWVTVFGFPQASASYILLQFAQYGNILKHVMSNTGNWMHIRYQSKLQARKALSKDGRIFGESIMIGVKPCIDKSVMESSDRCALSSPSLAFTPPIKTLGTPTQPGSTPRISTMRPLATAYKASTSDYQVISDRQTPKKDESLVSKAMEYMFGW
